Measured values from PMC3814363, “Tracking in atomic detail the functional specializations in viral RecA helicases that occur during evolution” (Nucleic Acids Research, 2013).

Legend:
[1] = target: ɸ13 P4 (full-length packaging NTPase P4 of bacteriophage ɸ13) (bacteriophage ɸ13); test: crystal structure; ɸ13 P4 crystals grown at 20°C from 12 mg/ml protein; 100 mM Tris–HCl pH 7.0, 900 mM trisodium citrate, 200 mM NaCl; apo form; hexamer
[2] = target: T1, ɸ12 P4 (Pseudomonas phage phi12, UniProt Q94M05); test: X-ray crystal structure, […] Å; format: binding; conditions: 5 mM UTP, pH 4.8; nucleotide site; competitive with ATP, not hydrolysed
T1 construct: gene 4; plasmid pPG27 (template for mutants), E. coli BL21(DE3) or B834(DE3); hexamer

[3] = target: ɸ8 P4 (full-length packaging NTPase P4 of bacteriophage ɸ8) (bacteriophage ɸ8); test: crystal structure; ɸ8 P4 crystals grown at 24°C; 100 mM sodium acetate pH 4.6, […] ammonium sulphate, DTT; protein 3 mg/ml; apo form; hexamer
[4] = target: ɸ8 P4Δ281 (C-terminally truncated ɸ8 P4, missing residues 281–321) (bacteriophage ɸ8); test: crystal structure; ɸ8 P4Δ281 crystals from 5 mg/ml protein; 100 mM Tris pH 8.0, 18% PEG 1000; hexamer
[5] = target: the molecule itself; test: crystal structure; ɸ6 P4Δ310 crystals grown at 24°C from 3.5 mg/ml protein in 20 mM HEPES pH 8.0, 5 mM MgCl2, 2 mM CaCl2, 5 mM ADP, 100 mM NaCl; reservoir 6% PEG 4000, 90 mM sodium acetate pH 4.5; ADP bound; hexamer
[6] = target: the molecule itself; test: not stated; quaternary structure of purified ɸ12 P4 mutants as listed in Table 1; method not given
[7] = target: the molecule itself; test: crystal structure; wild-type ɸ12 P4 crystals; 10% PEG 1500, 100 mM sodium acetate pH 4.8, 5 mM UTP; hexamer

**Q.** For “ɸ13 P4 (full-length packaging NTPase P4 of bacteriophage ɸ13) (enzyme)”, which stoichiometry N [1] is on record?
**A.** 6

**Q.** Which “X-ray crystal structure, 1.9 Å” value [2] does the source give for `O=c1ccn([C@@H]2O[C@H](COP(=O)(O)OP(=O)(O)OP(=O)(O)O)[C@@H](O)[C@H]2O)c(=O)[nH]1` [UTP] here?
**A.** pyrimidine triphosphates can bind the hexamer without being hydrolysed

**Q.** With “ɸ8 P4 (full-length packaging NTPase P4 of bacteriophage ɸ8) (enzyme)” as the molecule, how does the stoichiometry N [3] read?
**A.** 6

**Q.** For “ɸ8 P4Δ281 (C-terminally truncated ɸ8 P4, missing residues 281–321) (domain or fragment)”, which stoichiometry N [4] is on record?
**A.** 6

B1: ɸ6 P4Δ310 (C-terminally truncated packaging NTPase P4 of bacteriophage ɸ6, missing residues 310–331) (domain or fragment, UniProt P11125 1-309, looked up)
chain: MPIVVTQAHIDRVGIAADLLDASPVSLQVLGRPTAINTVVIKTYIAAVMELASKQGGSLAGVDIRPSVLLKDTAIFTKPKAKSADVESDVDVLDTGIYSVPGLARKPVTHRWPSEGIYSGVTALMGATGSGKSITLNEKLRPDVLIRWGEVAEAYDELDTAVHISTLDEMLIVCIGLGALGFNVAVDSVRPLLFRLKGAASAGGIVAVFYSLLTDISNLFTQYDCSVVMVVNPMVDAEKIEYVFGQVMASTVGAILCADGNVSRTMFRTNKGRIFNGAAPLAADTHMPSMDRPTSMKALDHTSIASVAP
notes: packaging NTPase P4 of bacteriophage ɸ6, C-terminally truncated, missing residues 310–331; expressed from plasmid pJTJ7.3/7; Crystallised with ADP, Mg2+ and Ca2+; source: E. coli BL21(DE3) or B834(DE3), purified (Heparin, Q-sepharose, Superdex 200)
**Q.** B1 was tested. Which “stoichiometry N” value [5] did it give?
**A.** 6

B2: ɸ12 P4 Y288A (enzyme, bacteriophage ɸ12)
chain: MIHLYDAKSFAKLRAAQYAAFHTDAPGSWFDHTSGVLESVEDGTPVLAIGVESGDAIVFDKNAQRIVAYKEKSVKAEDGSVSVVQVENGFMKQGHRGWLVDLTGELVGCSPVVAEFGGHRYASGMVIVTGKGNSGKTPLVHALGEALGGKDKYATVRFGEPLSGYNTDFNVFVDDIARAMLQHRVIVIDSLKNVIGAAGGNTTSGGISRGAFDLLSDIGAMAASRGCVVIASLNPTSNDDKIVELVKEASRSNSTSLVISTDVDGEWQVLTRTGEGLQRLTHTLQTSAGEHSVLTIHTSKQSGGKQASGKAIQTVIKNDELESVLRRLTSN
notes: packaging NTPase P4 of bacteriophage ɸ12 (gene 4) with Y288A; made from plasmid pPG27, plasmid pDK29; also called ɸ12 Y288A; source: E. coli BL21(DE3) or B834(DE3), purified (Heparin, Q-sepharose, Superdex 200)
**Q.** With B2 as the molecule, how does the “stoichiometry N” value [6] read?
**A.** 6

B3: ɸ12 P4-S292A (enzyme)
chain: MIHLYDAKSFAKLRAAQYAAFHTDAPGSWFDHTSGVLESVEDGTPVLAIGVESGDAIVFDKNAQRIVAYKEKSVKAEDGSVSVVQVENGFMKQGHRGWLVDLTGELVGCSPVVAEFGGHRYASGMVIVTGKGNSGKTPLVHALGEALGGKDKYATVRFGEPLSGYNTDFNVFVDDIARAMLQHRVIVIDSLKNVIGAAGGNTTSGGISRGAFDLLSDIGAMAASRGCVVIASLNPTSNDDKIVELVKEASRSNSTSLVISTDVDGEWQVLTRTGEGLQRLTHTLQTSYGEHAVLTIHTSKQSGGKQASGKAIQTVIKNDELESVLRRLTSN
notes: packaging NTPase P4 of bacteriophage ɸ12 (gene 4) with S292A; made from plasmid pPG27, plasmid pDK31; Crystallised with 5 mM AMPcPP; also called ɸ12 S292A; S292A mutant; source: E. coli BL21(DE3) or B834(DE3), purified (Heparin, Q-sepharose, Superdex 200)
**Q.** With B3 as the molecule, how does the “stoichiometry N” value [6] read?
**A.** 6

B4: ɸ12 P4 TTS202-204LKK (enzyme, bacteriophage ɸ12)
chain: MIHLYDAKSFAKLRAAQYAAFHTDAPGSWFDHTSGVLESVEDGTPVLAIGVESGDAIVFDKNAQRIVAYKEKSVKAEDGSVSVVQVENGFMKQGHRGWLVDLTGELVGCSPVVAEFGGHRYASGMVIVTGKGNSGKTPLVHALGEALGGKDKYATVRFGEPLSGYNTDFNVFVDDIARAMLQHRVIVIDSLKNVIGAAGGNLKKGGISRGAFDLLSDIGAMAASRGCVVIASLNPTSNDDKIVELVKEASRSNSTSLVISTDVDGEWQVLTRTGEGLQRLTHTLQTSYGEHSVLTIHTSKQSGGKQASGKAIQTVIKNDELESVLRRLTSN
notes: packaging NTPase P4 of bacteriophage ɸ12 (gene 4) with LKK instead of TTS (residues 202–204); cloned in the pT7-7 vector at NdeI-EcoRI sites; also called ɸ12 TTS202-204LKK; source: E. coli BL21(DE3) or B834(DE3), purified (Heparin, Q-sepharose, Superdex 200)
**Q.** With B4 as the molecule, how does the “stoichiometry N” value [6] read?
**A.** 6

B5: wild-type ɸ12 P4 (packaging NTPase P4 of bacteriophage ɸ12) (enzyme)
chain: MIHLYDAKSFAKLRAAQYAAFHTDAPGSWFDHTSGVLESVEDGTPVLAIGVESGDAIVFDKNAQRIVAYKEKSVKAEDGSVSVVQVENGFMKQGHRGWLVDLTGELVGCSPVVAEFGGHRYASGMVIVTGKGNSGKTPLVHALGEALGGKDKYATVRFGEPLSGYNTDFNVFVDDIARAMLQHRVIVIDSLKNVIGAAGGNTTSGGISRGAFDLLSDIGAMAASRGCVVIASLNPTSNDDKIVELVKEASRSNSTSLVISTDVDGEWQVLTRTGEGLQRLTHTLQTSYGEHSVLTIHTSKQSGGKQASGKAIQTVIKNDELESVLRRLTSN
notes: packaging NTPase P4 of bacteriophage ɸ12 (gene 4), wild type; plasmid pPG27; Crystallised here with 5 mM UTP; also called P4 ɸ12; source: E. coli BL21(DE3) or B834(DE3), purified (Heparin, Q-sepharose, Superdex 200)
**Q.** With B5 as the molecule, how does the “stoichiometry N” value [7] read?
**A.** 6

B6: ɸ12 P4-Q278A (enzyme)
chain: MIHLYDAKSFAKLRAAQYAAFHTDAPGSWFDHTSGVLESVEDGTPVLAIGVESGDAIVFDKNAQRIVAYKEKSVKAEDGSVSVVQVENGFMKQGHRGWLVDLTGELVGCSPVVAEFGGHRYASGMVIVTGKGNSGKTPLVHALGEALGGKDKYATVRFGEPLSGYNTDFNVFVDDIARAMLQHRVIVIDSLKNVIGAAGGNTTSGGISRGAFDLLSDIGAMAASRGCVVIASLNPTSNDDKIVELVKEASRSNSTSLVISTDVDGEWQVLTRTGEGLARLTHTLQTSYGEHSVLTIHTSKQSGGKQASGKAIQTVIKNDELESVLRRLTSN
notes: packaging NTPase P4 of bacteriophage ɸ12 (gene 4) with Q278A; made from plasmid pPG27, plasmid pDK30; Crystallised with 5 mM AMPcPP; also called ɸ12 Q278A; Q278A mutant; source: E. coli BL21(DE3) or B834(DE3), purified (Heparin, Q-sepharose, Superdex 200)
**Q.** For B6, which “stoichiometry N” value [6] is on record?
**A.** 6

B7: ɸ12 P4 ΔTTS202-204 (enzyme, bacteriophage ɸ12)
chain: MIHLYDAKSFAKLRAAQYAAFHTDAPGSWFDHTSGVLESVEDGTPVLAIGVESGDAIVFDKNAQRIVAYKEKSVKAEDGSVSVVQVENGFMKQGHRGWLVDLTGELVGCSPVVAEFGGHRYASGMVIVTGKGNSGKTPLVHALGEALGGKDKYATVRFGEPLSGYNTDFNVFVDDIARAMLQHRVIVIDSLKNVIGAAGGNGGISRGAFDLLSDIGAMAASRGCVVIASLNPTSNDDKIVELVKEASRSNSTSLVISTDVDGEWQVLTRTGEGLQRLTHTLQTSYGEHSVLTIHTSKQSGGKQASGKAIQTVIKNDELESVLRRLTSN
notes: packaging NTPase P4 of bacteriophage ɸ12 (gene 4) with the L1 loop central residues T202-T203-S204 deleted; made from plasmid pPG27, plasmid pDK249; also called ɸ12 ΔTTS202-204; source: E. coli BL21(DE3) or B834(DE3), purified (Heparin, Q-sepharose, Superdex 200)
**Q.** Which “stoichiometry N” value [6] does the source give for B7 here?
**A.** 6
